According to patent publication US10662235B2, “Cysteine engineered fibronectin type III domain binding molecules” (Janssen Biotech, Inc., priority 2016, dated 2020):

Tests used:
[1] = system: H1573 cells; assay: Cytotoxicity assay of cytotoxin conjugates in H1573 cells; assay type: cell-based, human; details: MMAF conjugates; for IC50: Cell TiterGlo at 70 hours, read-out: IC50 (cell killing)
Procedure: Cell killing was assessed by measuring viability of the EGFR-overexpressing human tumor cell line H1573 following exposure to the cysteine variant-cytotoxin conjugates. […] Cells were allowed to attach overnight at 37° C. in a humidified 5% CO2 atmosphere. Medium was aspirated from 96-well plate and cells were treated with 50 uL of fresh media and 50 uL of 2× inhibitor made up in fresh media. Cell viability was determined by an endpoint assay with Cell TiterGlo (Promega) at 70 hours. IC50 values were determined by fitting data to the equation for a sigmoidal dose response with variable slope using GraphPad Prism 5 (GraphPad Software).
Conjugates consisting of ECB147 cysteine variants, 83v2-cys, or Tencon-cys linked to a cytotoxic tubulin inhibitor from the auristatin family (FIG. 2) were tested for target-dependent cytotoxicity in cancer cells. The inhibitor was linked to the cysteine-containing protein via a non-cleavable PEG4 linker or an enzyme-cleavable valine-citrulline or valine-lysine linker.

[2] = Analytical size exclusion chromatography (aggregation state, percent monomer); assay type: physicochemical; details: NEM-conjugated cysteine variants; SEC, Abs280
Procedure: Size exclusion chromatography was used to determine the aggregation state of the FN3 domains binding EGFR. Aliquots (10 μL) of each purified FN3 domain were injected onto a Superdex 75 5/150 column (GE Healthcare) at a flow rate of 0.3 mL/min in a mobile phase of PBS pH 7.4. Elution from the column was monitored by absorbance at 280 nm.
The percent monomer for each protein was determined by integrating the Abs280 signal and comparing the peak in the monomer region (5.5-6 minutes) to the peaks in the oligomer region (4-5.3 minutes).

[3] = Thermal stability by differential scanning calorimetry; assay type: physicochemical; details: cysteine-NEM conjugates; for First Scan Tm: DSC 25-100° C., 1° C. per minute; for Second Scan Tm: second identical scan
Procedure: The thermal stability of cysteine-NEM conjugates was assessed by differential scanning calorimetry (DSC). The only the conjugates tested were those determined to express at high levels, conjugate efficiently, and retain EGFR binding. Additionally, cysteine variants within the BC and FG loops were excluded. Stability data was generated by heating a 400 μL aliquot of the variant from 25° C. to 100° C. at a scan rate of 1° C. per minute in a VP-DSC instrument (MicroCal). A second identical scan was completed on the sample in order to assess the reversibility of thermal folding/unfolding. Data was fitted to a 2-state unfolding model in order to calculate the melting temperature (Table 10).
Thermal Stability of c-Met-Binding FN3 Domains Differential scanning calorimetry in PBS was used to assess the stability of each FN3 domain.

B1: E53C (protein)
chain: MLPAPKNLVVSEVTEDSARLSWDDPWAFYESFLIQYQESEKVGEAIVLTVPGSCRSYDLTGLKPGTEYTVSIYGVHNVYKDTNMRGLPLSAIFTT
modifications: EGFR binding FN3 domain
In the case of B1, the “IC50 relative to parent conjugate” value [1] is reported as “over two times more potent than the parent”.

B2: N6C (protein)
chain: LPAPKCLVVSEVTEDSARLSWDDPWAFYESFLIQYQESEKVGEAIVLTVPGSERSYDLTGLKPGTEYTVSIYGVHNVYKDTNMRGLPLSAIFTT
With B2 the Percent monomer [2] was 94%, the “First Scan Tm” value [3] was 71 °C and the “Second Scan Tm” value [3] was 70 °C. The “IC50 relative to parent conjugate” value [1] was “over two times more potent than the parent” and the IC50 [1] was 160 pM.

B3: S10C (protein)
chain 1: MLPAPKNLVVCEVTEDSARLSWDDPWAFYESFLIQYQESEKVGEAIVLTVPGSERSYDLTGLKPGTEYTVSIYGVHNVYKDTNMRGLPLSAIFTT
chain 2: LPAPKNLVVCEVTEDSARLSWDDPWAFYESFLIQYQESEKVGEAIVLTVPGSERSYDLTGLKPGTEYTVSIYGVHNVYKDTNMRGLPLSAIFTT
modifications: EGFR binding FN3 domain; EGFR-binding FN3 domain
With B3 the Percent monomer [2] was 80%, the “First Scan Tm” value [3] was 68 °C and the “Second Scan Tm” value [3] was 68 °C. It also gave an IC50 [1] of 430 pM.

B4: T59C (protein)
chain 1: MLPAPKNLVVSEVTEDSARLSWDDPWAFYESFLIQYQESEKVGEAIVLTVPGSERSYDLCGLKPGTEYTVSIYGVHNVYKDTNMRGLPLSAIFTT
chain 2: LPAPKNLVVSEVTEDSARLSWDDPWAFYESFLIQYQESEKVGEAIVLTVPGSERSYDLCGLKPGTEYTVSIYGVHNVYKDTNMRGLPLSAIFTT
modifications: EGFR binding FN3 domain; EGFR-binding FN3 domain
In the case of B4, the Percent monomer [2] is reported as 100%, the “First Scan Tm” value [3] is reported as 67 °C and the “Second Scan Tm” value [3] is reported as 67 °C. For the same molecule, the IC50 [1] was 440 pM.

B5: T93C (protein)
chain 1: MLPAPKNLVVSEVTEDSARLSWDDPWAFYESFLIQYQESEKVGEAIVLTVPGSERSYDLTGLKPGTEYTVSIYGVHNVYKDTNMRGLPLSAIFCT
chain 2: LPAPKNLVVSEVTEDSARLSWDDPWAFYESFLIQYQESEKVGEAIVLTVPGSERSYDLTGLKPGTEYTVSIYGVHNVYKDTNMRGLPLSAIFCT
modifications: EGFR binding FN3 domain; EGFR-binding FN3 domain
For B5, the Percent monomer [2] was 100%, the “First Scan Tm” value [3] was 69 °C and the “Second Scan Tm” value [3] was 69 °C. The “IC50 relative to parent conjugate” value [1] was “over two times more potent than the parent” and the IC50 [1] was 200 pM.

B6: R54C (protein)
chain 1: MLPAPKNLVVSEVTEDSARLSWDDPWAFYESFLIQYQESEKVGEAIVLTVPGSECSYDLTGLKPGTEYTVSIYGVHNVYKDTNMRGLPLSAIFTT
chain 2: LPAPKNLVVSEVTEDSARLSWDDPWAFYESFLIQYQESEKVGEAIVLTVPGSECSYDLTGLKPGTEYTVSIYGVHNVYKDTNMRGLPLSAIFTT
modifications: EGFR binding FN3 domain; EGFR-binding FN3 domain
In the case of B6, the Percent monomer [2] is reported as 96%, the “First Scan Tm” value [3] is reported as 65 °C and the “Second Scan Tm” value [3] is reported as 65 °C. The IC50 [1] was 370 pM.

B7: T48C (protein)
chain 1: MLPAPKNLVVSEVTEDSARLSWDDPWAFYESFLIQYQESEKVGEAIVLCVPGSERSYDLTGLKPGTEYTVSIYGVHNVYKDTNMRGLPLSAIFTT
chain 2: LPAPKNLVVSEVTEDSARLSWDDPWAFYESFLIQYQESEKVGEAIVLCVPGSERSYDLTGLKPGTEYTVSIYGVHNVYKDTNMRGLPLSAIFTT
modifications: EGFR binding FN3 domain; EGFR-binding FN3 domain
In the case of B7, the Percent monomer [2] is reported as 90%, the “First Scan Tm” value [3] is reported as 72 °C and the “Second Scan Tm” value [3] is reported as 72 °C. For the same molecule, the IC50 [1] was 590 pM.

B8: S70C (protein)
chain 1: MLPAPKNLVVSEVTEDSARLSWDDPWAFYESFLIQYQESEKVGEAIVLTVPGSERSYDLTGLKPGTEYTVCIYGVHNVYKDTNMRGLPLSAIFTT
chain 2: LPAPKNLVVSEVTEDSARLSWDDPWAFYESFLIQYQESEKVGEAIVLTVPGSERSYDLTGLKPGTEYTVCIYGVHNVYKDTNMRGLPLSAIFTT
modifications: EGFR binding FN3 domain; EGFR-binding FN3 domain
For B8, the Percent monomer [2] was 100%, the “First Scan Tm” value [3] was 73 °C and the “Second Scan Tm” value [3] was 72 °C. For the same molecule, the IC50 [1] was 1140 pM.

B9: S16C (protein)
chain 1: MLPAPKNLVVSEVTEDCARLSWDDPWAFYESFLIQYQESEKVGEAIVLTVPGSERSYDLTGLKPGTEYTVSIYGVHNVYKDTNMRGLPLSAIFTT
chain 2: LPAPKNLVVSEVTEDCARLSWDDPWAFYESFLIQYQESEKVGEAIVLTVPGSERSYDLTGLKPGTEYTVSIYGVHNVYKDTNMRGLPLSAIFTT
modifications: EGFR binding FN3 domain; EGFR-binding FN3 domain
In the case of B9, the Percent monomer [2] is reported as 75%, the “First Scan Tm” value [3] is reported as 68 °C and the “Second Scan Tm” value [3] is reported as 68 °C. It also gave an IC50 [1] of 750 pM.

B10: S30C (protein)
chain 1: MLPAPKNLVVSEVTEDSARLSWDDPWAFYECFLIQYQESEKVGEAIVLTVPGSERSYDLTGLKPGTEYTVSIYGVHNVYKDTNMRGLPLSAIFTT
chain 2: LPAPKNLVVSEVTEDSARLSWDDPWAFYECFLIQYQESEKVGEAIVLTVPGSERSYDLTGLKPGTEYTVSIYGVHNVYKDTNMRGLPLSAIFTT
modifications: EGFR binding FN3 domain; EGFR-binding FN3 domain
For B10, the Percent monomer [2] was 94%, the “First Scan Tm” value [3] was 71 °C and the “Second Scan Tm” value [3] was 71 °C. For the same molecule, the IC50 [1] was 780 pM.

B11: S20C (protein)
chain 1: MLPAPKNLVVSEVTEDSARLCWDDPWAFYESFLIQYQESEKVGEAIVLTVPGSERSYDLTGLKPGTEYTVSIYGVHNVYKDTNMRGLPLSAIFTT
chain 2: LPAPKNLVVSEVTEDSARLCWDDPWAFYESFLIQYQESEKVGEAIVLTVPGSERSYDLTGLKPGTEYTVSIYGVHNVYKDTNMRGLPLSAIFTT
modifications: EGFR binding FN3 domain; EGFR-binding FN3 domain
With B11 the Percent monomer [2] was 94%, the “First Scan Tm” value [3] was 70 °C and the “Second Scan Tm” value [3] was 70 °C. For the same molecule, the IC50 [1] was 360 pM.

B12: S38C (protein)
chain 1: MLPAPKNLVVSEVTEDSARLSWDDPWAFYESFLIQYQECEKVGEAIVLTVPGSERSYDLTGLKPGTEYTVSIYGVHNVYKDTNMRGLPLSAIFTT
chain 2: LPAPKNLVVSEVTEDSARLSWDDPWAFYESFLIQYQECEKVGEAIVLTVPGSERSYDLTGLKPGTEYTVSIYGVHNVYKDTNMRGLPLSAIFTT
modifications: EGFR binding FN3 domain; EGFR-binding FN3 domain
For B12, the Percent monomer [2] was 93%, the “First Scan Tm” value [3] was 65 °C and the “Second Scan Tm” value [3] was 65 °C. It also gave an IC50 [1] of 760 pM.

B13: V8C (protein)
chain 1: MLPAPKNLCVSEVTEDSARLSWDDPWAFYESFLIQYQESEKVGEAIVLTVPGSERSYDLTGLKPGTEYTVSIYGVHNVYKDTNMRGLPLSAIFTT
chain 2: LPAPKNLCVSEVTEDSARLSWDDPWAFYESFLIQYQESEKVGEAIVLTVPGSERSYDLTGLKPGTEYTVSIYGVHNVYKDTNMRGLPLSAIFTT
modifications: EGFR binding FN3 domain; EGFR-binding FN3 domain
In the case of B13, the Percent monomer [2] is reported as 91%, the “First Scan Tm” value [3] is reported as 69 °C and the “Second Scan Tm” value [3] is reported as 69 °C. It also gave an IC50 [1] of 350 pM.

B14: S89C (protein)
chain 1: MLPAPKNLVVSEVTEDSARLSWDDPWAFYESFLIQYQESEKVGEAIVLTVPGSERSYDLTGLKPGTEYTVSIYGVHNVYKDTNMRGLPLCAIFTT
chain 2: LPAPKNLVVSEVTEDSARLSWDDPWAFYESFLIQYQESEKVGEAIVLTVPGSERSYDLTGLKPGTEYTVSIYGVHNVYKDTNMRGLPLCAIFTT
modifications: EGFR binding FN3 domain; EGFR-binding FN3 domain
For B14, the Percent monomer [2] was 96%, the “First Scan Tm” value [3] was 72 °C and the “Second Scan Tm” value [3] was 71 °C. It also gave an IC50 [1] of 940 pM.

B15: V41C (protein)
chain 1: MLPAPKNLVVSEVTEDSARLSWDDPWAFYESFLIQYQESEKCGEAIVLTVPGSERSYDLTGLKPGTEYTVSIYGVHNVYKDTNMRGLPLSAIFTT
chain 2: LPAPKNLVVSEVTEDSARLSWDDPWAFYESFLIQYQESEKCGEAIVLTVPGSERSYDLTGLKPGTEYTVSIYGVHNVYKDTNMRGLPLSAIFTT
modifications: EGFR binding FN3 domain; EGFR-binding FN3 domain
In the case of B15, the Percent monomer [2] is reported as 98%, the “First Scan Tm” value [3] is reported as 71 °C and the “Second Scan Tm” value [3] is reported as 71 °C. For the same molecule, the IC50 [1] was 1130 pM.
